# Test results taken from US20240218024A1, “METHODS AND COMPOSITIONS FOR TREATMENT OF VIRAL INFECTION” (TECHNION RESEARCH & DEVELOPMENT FOUNDATION LIMITED, priority 2021, published 2024).
# B1: PCP-14×/MCP-15×: class II slncRNA with fourteen PCP binding sites spaced by hairpins that do not bind PCP (SEQ ID NO: 28) (nucleic acid)
# chain: GAGAAACGTTTCGACATTATATGGAATGCGAAAGTGGAACGTAATGGACATGAAGACGATTACGCTTCACACGGAGGATGCGGGAAACATGAAGATCACCCATGTTCGCTTAACCATGGATAGGGATCACCCATGTTGCGGTGGTGCGTCAACCAGAGATTTCATATGGGAAACTCTGGGACACGCTGTATTTATACATGAGGATCACCATGTGTGCTTAAATATGGGTAAGTTGACCATTAGGCAACTGTAAGATGCTCCGGTTAATTCCAGTTTATATGGAAACGGAATTGATGTACCGTTGAGCAAGAACACGATTACGGTTCTTCGATTAGATATGGTTTAAACGACAATATATGGATTGCGTTTTGGGGCACGCCGTCTGGAGAAGACCATTAGGCTTCTTTACTGCGACCGCAATAAAAGGAGATTATATGAAATCCCTTTGCGCGCAACCGGGTAGAAGATCACCATTAGGGATCTGTAACTCACGGCGCTATTACGAGTCAATATGGTGACCGTAAAGCTAGGGCATGTGCCAGAAGAGCATTAGCCTTCTCCTTGGTGGGGAAGCGATAAGCACATTATAAGGAATGGCTTAAAGTGGTGCGGCGGGGGACTTGACCATTAGGCAAGTGTGCTAGACCCTGGTCTTTTCGAGAAAATATGGTTTCCGAAAGAACTATACGAAGTGACATGCGAGGATTACCCGCATATGGTGCAAATGGGAGAATTGGAGTAAATATGGTTACCCAATAGGCTAGAGCATGACGGCAGTGAGAATTATCCACTGGTTAGCGGGTTACCGAGATTGCACATTATATGGAATGGCAATTGATTCATGCCGGTCGTTTGTGAGGAGTACCCACAAAATGGGAGGGTGCTATATAACCAGGTTATATGCAACCGGTTAGGCCGTTGTGTTAGTTTAGTTCAGCATTAGCGAACTGTGCAAGACCCGGTGGCTAAGGAGTTTATATGGAAACCCTTAGCCCTCGAGCATGCTAACATGAGGATTACCCATGTGATGGGTTTGAAACGTGCAATTATTTGATATGGCAAAAATTGGGTAGGGCATGGCTGCAGCGTGAGAATTATCCACGCTAGGCTAGAGCATGGCGGTATTGAGTTCGGGTTTGAGATGACCATTAGGCATCTGTGCTAGAGCATGCGAAAACGACATAATATGGTATGCGTTTTGGGGTGCTAGTATACCACATGATGAGCACACATGTATGGGTGGGAGGTAGAGGGATTCTCGCGAGAAGA
# B2: PCP-8×: class I slncRNA with eight PCP binding hairpins (SEQ ID NO: 27) (nucleic acid)
# chain: GAGAAACGTTTCGACATTATATGGAATGCGAAACACGGAGGATGCGGGAAACATGAAGATCACCCATGTTCGCTTAACCATGGATAGGGATCACCCATGTTGCGGTGGTGCGTCAACCAGAGATTTCATATGGGAAACTCTGGGACACGCTGTATTTATACATGAGGATCACCATGTGTGCTTAAATATGGGTAATTCCAGTTTATATGGAAACGGAATTAGGCTAGAGCATGGCGGTATTGAGTTCGGGTTTGAAACGACAATATATGGATTGCGTTTTGGGGCACGCCGTCTGGAAAGGAGATTATATGAAATCCCTTTGCGCGCAACCGGGTAGATACGAGTCAATATGGTGACCGTACCTTGGTGGGGAAGCGATAAGCACATTATAAGGAATGGCTTAGTGCTAGACCCTGGTCTTTTCGAGAAAATATGGTTTCCGAAAATGGGTGGGAGGTAGAGGGATTCTCGCGAGAAGAA
# B3: PCP-3×: class I slncRNA with three PCP binding hairpins (SEQ ID NO: 23) (nucleic acid)
# chain: GAGAAACGTTTCGACATTATATGGAATGCGAAACACGGAGGATGCGGGAAACATGAAGATCACTCATGTTCGCTTAACCATGGATAGGGATCACCCATGTTGCGGTGGTGCGTCAACCAGAGATTTCATATGGGAAACTCTGGGACACGCTGTATTTATACATGAGGATCACCATGTGTGCTTAAATATGGGTAATTCCAGTTTATATGGAAACGGA
# B4: PCP-4×/MCP-4×: class II slncRNA with four PCP binding sites spaced by non-PCP hairpins (SEQ ID NO: 26) (nucleic acid)
# chain: GAGAAACGTTTCGACATTATATGGAATGCGAAAGTGGAACGTAATGGACATGAAGACGATTACGCTTCACACGGAGGATGCGGGAAACATGAAGATCACCCATGTTCGCTTAACCATGGATAGGGATCACCCATGTTGCGGTGGTGCGTCAACCAGAGATTTCATATGGGAAACTCTGGGACACGCTGTATTTATACATGAGGATCACCATGTGTGCTTAAATATGGGTAAGTTGACCATTAGGCAACTGTAAGATGCTCCGGTTAATTCCAGTTTATATGGAAACGGAATTGATGTACCGTTGAGCAAGAACACGATTACGGTTCTTCGATTAGATATGGTTTAAACGACAATATATGGATTGCGTTTTGGGGCACGCCGTCTGGAGAAGACCATTAGGCTTCTTTACTGCGATGGGTGGGAGGTAGAGGGATTCTCGCGAGAAGAA
# B5: PCP-3×/MCP-3×: class II slncRNA with three PCP binding sites spaced by non-PCP hairpins (SEQ ID NO: 25) (nucleic acid)
# chain: GAGAAACGTTTCGACATTATATGGAATGCGAAAGTGGAACGTAATGGACATGAAGACGATTACGCTTCACACGGAGGATGCGGGAAACATGAAGATCACCCACGCTTAACCATGGATAGGGATCACCCATGTTGCGGTGGTGCGTCAACCAGAGATTTCATATGGGAAACTCTGGGACACGCTGTATTTATACATGAGGATCACCATGTGTGCTTAAATATGGGTAAGTTGACCATTAGGCAACTGTAAGATGCTCCGGTTAATTCCAGTTTATATGGAAACGGAATTGATGTACCGTTGAGCAAGAACACGATTACGGTTCTTCGATTAGATATGGGGTGGGAGGTAGAGGGATTCTCGCGAGAAGA
# B6: PCP-4×: class I slncRNA with four PCP binding hairpins (SEQ ID NO: 24) (nucleic acid)
# chain: GAGAAACGTTTCGACATTATATGGAATGCGAAACACGGAGGATGCGGGAAACATGAAGATCACTCATGTTCGCTTAACCATGGATAGGGATCACCCATGTTGCGGTGGTGCGTCAACCAGAGATTTCATATGGGAAACTCTGGGACACGCTGTATTTATACATGAGGATCACCATGTGTGCTTAAATATGGGTAATTCCAGTTTATATGGAAACGGAATAAGATTAGATATGGTTTAAACGACAATATATGGATTGCGTTTTGGGGCACGCCGTCTGGTTACTGCGATGGGTGGGAGGTAGAGGGATTCTAAGCTTAAGA
# Legend:
# [1] = Temporal tracking of individual SRNP granules in vitro (burst analysis); format: physicochemical; conditions: SRNP granules with tdPCP-mCherry, 60 minutes tracking
# Experimental: To test whether the synthetic granules display this characteristic, we tracked the fluorescence intensity of each granule in a given field-of-view for 60 minutes. The brightness of each granule was analyzed at every time point using a customized analysis algorithm (see Supplementary Methods). The resulting signals are either decreasing or increasing in overall intensity, and dispersed within them are sharp variations in brightness, that are also either increasing or decreasing. Next, we employed a statistical threshold which flagged these signal variation events, or “signal bursts”, whose amplitude was determined to not be part of the underlying signal distribution (p-value<1e-3) (See Supplementary Methods for definitions of bursts, algorithm details, and relevant numerical controls). The events were classified as either increasing bursts (green), decreasing bursts (red), or non-classified segments (blue), which are segments where molecular movement cannot be discerned from the noise (FIG. 8A). For each detected burst, its amplitude (A intensity) and duration (A time) were measured, in addition to measuring the time between bursts and the order of their appearance. In FIG. 8B the distributions of amplitudes for all three event types were plotted, obtained from ˜156 signal traces, each gathered from a different granule composed of PCP-14×/MCP-15× and tdPCP-mCherry. We observe a bias towards negative burst or shedding events. Assuming an interpretation that fluorescent burst events correspond to insertion and shedding events of slncRNA-CP complexes into or out of the synthetic granules, the amplitude bias towards negative events is consistent with RNA degradation and lack of transcription within the in vitro suspension, leading to a net shedding of slncRNA molecules out of the granules over time.
# The tracking data, (x,y,t coordinates of the bright spots centroids), together with the raw microscopy images were fed to a custom built Matlab (The Mathworks, Natick, MA) script designed to normalize the relevant spot data. Normalization was carried out as follows: for each bright spot, a 14-pixel wide sub-frame was extracted from the field of view, with the spot at its center. Each pixel in the sub-frame was classified to one of three categories according to its intensity value. […]
# We assume the total fluorescence is comprised of three distinct signal processes: RNP granule fluorescence, background fluorescence and noise. We further assume that background fluorescence is slowly changing, as compared with granule fluorescence which depends on the dynamic and frequent insertion and shedding events occurring in the droplet. […] To identify such shifts in the base-line fluorescence intensity, we use a moving-average filter of 13 points (i.e., 2 minutes) to smooth the data. […]
# [2] = In vitro slncRNA and slncRNA-protein granule formation (fluorescence microscopy); format: physicochemical; conditions: for Poisson parameter λ best fit of condensate fluorescence intensity distribution: slncRNA-only condensates
# [3] = SRNP granules with tdPCP-mCherry
Molecule,"ratio between mean granule fluorescence and mean burst amplitude, red channel (protein) [1]",Poisson parameter λ best fit of condensate fluorescence intensity distribution [2],also measured
B1,approximately equal to that of the green channel,3-5,"median mCherry fluorescence of SRNP granules, brighter than PCP-4×/MCP-4× granules [2, 3]: ~3 times; median mCherry fluorescence of SRNP granules, brighter than PCP-8× granules [2, 3]: > 2 fold; slncRNA and protein concentrations at which puncta like structures were detected ([2]; SRNP granules with tdPCP-mCherry, both components varied over two orders of magnitude): ≥ 100 ng/µL"
B2,~2,–,–
B3,–,–,"formation of fluorescent condensates, slncRNA only ([2]; 8.5 nM slncRNA, granule forming buffer, 1 hour room temperature): no such structures were detected; median mCherry fluorescence of SRNP granules relative to PCP-14×/MCP-15× granules [2, 3]: half as bright; granule formation / colocalization with tdPCP-mCherry ([2]; slncRNA plus 25 nM tdPCP-mCherry): witnessed in the presence of the protein"
B4,approximately equal to that of the green channel,–,–
B5,approximately equal to that of the green channel,–,–
B6,–,0,–
